Measurements as given in US20140031769A1, “THERAPEUTIC AGENT FORMULATIONS FOR IMPLANTED DEVICES” (ForSight Vision4, Inc., priority 2010, published 2014).
Values after ≈ are worked out from the molar mass of the structure shown. Like-named read-outs stand apart in the source and are kept apart here. Blank lines part the entries; values can stand above or below the compound they belong to.

How the values were obtained:
[1] = RRI of 0.02 and reservoir volume of 25 uL; as described in U.S. Pub. No. 2010/0255061; cited from earlier work
[2] = rabbit, cited from earlier work
[3] = monkey, cited from earlier work
[4] = human, cited from earlier work
[5] = Solubility of therapeutic agent suspension in buffer; type: physicochemical; details: aqueous buffer; in the buffer at 37C
Text: The therapeutic agent stored in the reservoir of the container comprises at least one of a solid comprising the therapeutic agent, a solution comprising the therapeutic agent, a suspension comprising the therapeutic agent, particles comprising the therapeutic agent adsorbed thereon, or particles reversibly bound to the therapeutic agent. For example, reservoir may comprise a suspension of a cortico-steroid such as triamcinolone acetonide to treat inflammation of the retina.

[6] = Critical micelle concentration (CMC) of surfactant, surface tension with Wilhelmy plate; type: physicochemical
Text: The CMC can be determined from a variety of techniques such as measurements of surface tension using a Wilhelmy plate. The CMC for a particular surfactant may be dependent on a variety of parameters such as the concentrations of other components in the formulation and the temperature.
Surface tension measurements may be performed with a Wilhemy plate to determine the CMC; i.e., polysorbate 20 concentration threshold for constant surface tension. Devices can then be filled with formulations containing polysorbate 20 concentrations that are 0, 1, 5 and 20 times the CMC. These devices can be subjected to drug release testing and stability assays as described in Example 2.

Compound: Ranibizumab: antibody derivative (Fab fragment), VEGF inhibitor; active ingredient of Lucentis™
- half-life in device 100 [1]: about 100 days
- half-life in the vitreous ([2]; listed as Lucentis™): two to four
- half-life in the vitreous ([2]; listed as ranibizumab): approximately 3 days
- half-life in the vitreous ([3]; listed as Lucentis™): two to four
- half-life in the vitreous ([3]; listed as ranibizumab): approximately 3 days
- half-life in the vitreous ([4]; listed as Lucentis™): about nine
- half-life in the vitreous ([4]; listed as ranibizumab): ~9 days

- solubility [5]: ~19 µg/mL (≈ 43.7 µM)
Compound: CC1(C)O[C@@H]2C[C@H]3[C@@H]4CCC5=CC(=O)C=C[C@]5(C)[C@@]4(F)[C@@H](O)C[C@]3(C)[C@]2(C(=O)CO)O1 [triamcinolone acetonide]

- CMC (wt %) ([6]; CMC 1e−5 M): 0.001% wt %
- CMC (wt %) ([6]; CMC 8e−5 M): 0.01% wt %
Compound: Polysorbate 20
